Test results reported in the supplement of paper PMC9112550, “Optimization of the antimicrobial peptide Bac7 by deep mutational scanning” (BMC Biology, 2022).

Tested on: Escherichia coli TOP10
Test: shrunken log2 fold change of peptide-encoding DNA abundance (4.5 h post-induction vs induction); higher = less antimicrobial activity (less host growth inhibition)
Settings: time post-induction: 4.5 h; library: site-saturation at positions 5, 18, 19, 20
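Also: peptides expressed intracellularly from a pBAD plasmid library in pooled LB shake-flask culture, induced with 0.3% L-arabinose, DNA abundance read by NGS, three biological replicates, DESeq2 with apeglm shrinkage.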

| Sequence | shrunken log2 fold change |
| --- | --- |
| RRIRVRPPRLPRPRPRPWFNPRP | -0.437 |
| RRIRLRPPRLPRPRPRPHEVPRP | -0.0201 |
| RRIRGRPPRLPRPRPRPMWNPRP | 0.557 |
| RRIRKRPPRLPRPRPRPKMAPRP | 0.169 |
| RRIRCRPPRLPRPRPRPMAFPRP | -0.22 |
| RRIRCRPPRLPRPRPRPAMIPRP | 0.111 |
| RRIRNRPPRLPRPRPRPNKTPRP | -0.0415 |
| RRIRARPPRLPRPRPRPYYDPRP | -0.215 |
| RRIRLRPPRLPRPRPRPPREPRP | 0.544 |
| RRIRLRPPRLPRPRPRPGNDPRP | -0.0526 |
| RRIRPRPPRLPRPRPRPSSTPRP | -0.315 |
| RRIRKRPPRLPRPRPRPEGMPRP | 0.194 |
| RRIRSRPPRLPRPRPRPFHTPRP | -0.232 |
| RRIRMRPPRLPRPRPRPWVSPRP | -0.0423 |
| RRIRWRPPRLPRPRPRPQSPPRP | 0.0211 |
| RRIRIRPPRLPRPRPRPHNHPRP | -0.93 |
| RRIRGRPPRLPRPRPRPAGEPRP | 0.479 |
| RRIRVRPPRLPRPRPRPVCVPRP | -0.0658 |
| RRIRPRPPRLPRPRPRPCFQPRP | -0.0314 |
| RRIRERPPRLPRPRPRPGEAPRP | 0.139 |
| RRIRMRPPRLPRPRPRPQHPPRP | -0.0395 |
| RRIRTRPPRLPRPRPRPSQGPRP | 0.144 |

| Sequence | shrunken log2 fold change |
| --- | --- |
| RRIRYRPPRLPRPRPRPVVYPRP | 0.0874 |
| RRIRCRPPRLPRPRPRPNIEPRP | -0.279 |
| RRIRPRPPRLPRPRPRPTNWPRP | 0.214 |
| RRIRPRPPRLPRPRPRPTPTPRP | 0.483 |
| RRIRDRPPRLPRPRPRPIQCPRP | 0.0299 |
| RRIRQRPPRLPRPRPRPVFRPRP | -0.0986 |
| RRIRNRPPRLPRPRPRPLHVPRP | 0.251 |
| RRIRNRPPRLPRPRPRPASKPRP | 0.0111 |
| RRIRIRPPRLPRPRPRPMMMPRP | -0.227 |
| RRIRIRPPRLPRPRPRPPVHPRP | -0.185 |
| RRIRQRPPRLPRPRPRPVLMPRP | 0.111 |
| RRIRDRPPRLPRPRPRPGSNPRP | -0.153 |
| RRIRPRPPRLPRPRPRPMFLPRP | -0.269 |
| RRIRGRPPRLPRPRPRPSKYPRP | 0.00351 |
| RRIRNRPPRLPRPRPRPPESPRP | -0.000194 |
| RRIRCRPPRLPRPRPRPSVYPRP | -0.697 |
| RRIRSRPPRLPRPRPRPFCGPRP | -0.201 |
| RRIRRRPPRLPRPRPRPTGTPRP | 1.07 |
| RRIRKRPPRLPRPRPRPKQWPRP | 0.216 |
| RRIRQRPPRLPRPRPRPISVPRP | 0.136 |
| RRIRRRPPRLPRPRPRPEAIPRP | 0.445 |
| RRIRMRPPRLPRPRPRPFLYPRP | -0.124 |

| Sequence | shrunken log2 fold change |
| --- | --- |
| RRIRLRPPRLPRPRPRPQANPRP | -0.289 |
| RRIRQRPPRLPRPRPRPHRFPRP | -0.275 |
| RRIRMRPPRLPRPRPRPCFYPRP | -0.16 |
| RRIRTRPPRLPRPRPRPPLNPRP | -0.183 |
| RRIRDRPPRLPRPRPRPHVLPRP | 0.00542 |
| RRIRGRPPRLPRPRPRPVWTPRP | 0.674 |
| RRIRPRPPRLPRPRPRPQTIPRP | -0.0413 |
| RRIRPRPPRLPRPRPRPPNTPRP | 0.179 |
| RRIRCRPPRLPRPRPRPHSYPRP | -0.272 |
| RRIRKRPPRLPRPRPRPGKCPRP | 0.0131 |
| RRIRRRPPRLPRPRPRPWDVPRP | -0.149 |
| RRIRPRPPRLPRPRPRPVEAPRP | 0.481 |
| RRIRHRPPRLPRPRPRPNFYPRP | -0.515 |
| RRIRERPPRLPRPRPRPIGAPRP | -0.464 |
| RRIRMRPPRLPRPRPRPQWFPRP | -0.0662 |
| RRIRDRPPRLPRPRPRPNQDPRP | 0.000998 |
| RRIRRRPPRLPRPRPRPSKYPRP | -0.483 |
| RRIRVRPPRLPRPRPRPRKWPRP | 0.474 |
| RRIRCRPPRLPRPRPRPEYYPRP | -0.159 |
| RRIRQRPPRLPRPRPRPIKKPRP | -0.1 |
| RRIRNRPPRLPRPRPRPLDVPRP | -0.251 |
| RRIRWRPPRLPRPRPRPVVVPRP | 0.281 |

| Sequence | shrunken log2 fold change |
| --- | --- |
| RRIRKRPPRLPRPRPRPCPCPRP | 0.00911 |
| RRIRGRPPRLPRPRPRPGLMPRP | 0.799 |
| RRIRLRPPRLPRPRPRPLVTPRP | 0.000277 |
| RRIRERPPRLPRPRPRPPLGPRP | 0.0751 |
| RRIRYRPPRLPRPRPRPRCIPRP | -0.308 |
| RRIRHRPPRLPRPRPRPSYDPRP | -0.0244 |
| RRIRMRPPRLPRPRPRPTAVPRP | 1.64 |
| RRIRNRPPRLPRPRPRPYKSPRP | -0.00822 |
| RRIRTRPPRLPRPRPRPNGWPRP | 0.215 |
| RRIRGRPPRLPRPRPRPNYPPRP | 0.0611 |
| RRIRDRPPRLPRPRPRPPTWPRP | 0.291 |
| RRIRERPPRLPRPRPRPGPPPRP | 0.317 |
| RRIRGRPPRLPRPRPRPRSLPRP | 0.778 |
| RRIRERPPRLPRPRPRPWGFPRP | 0.0221 |
| RRIRLRPPRLPRPRPRPCSPPRP | -0.0527 |
| RRIRCRPPRLPRPRPRPDMCPRP | -0.13 |
| RRIRKRPPRLPRPRPRPGDIPRP | -0.227 |
| RRIRPRPPRLPRPRPRPTSDPRP | 0.0712 |
| RRIRKRPPRLPRPRPRPKHNPRP | 0.0641 |
| RRIRDRPPRLPRPRPRPSYNPRP | -0.285 |
| RRIRERPPRLPRPRPRPYRRPRP | -0.0227 |
| RRIRSRPPRLPRPRPRPSMQPRP | -0.242 |

| Sequence | shrunken log2 fold change |
| --- | --- |
| RRIRFRPPRLPRPRPRPKSRPRP | -0.0938 |
| RRIRHRPPRLPRPRPRPQSRPRP | -0.0223 |
| RRIRLRPPRLPRPRPRPLIYPRP | -0.832 |
| RRIRVRPPRLPRPRPRPCLCPRP | -0.491 |
| RRIRLRPPRLPRPRPRPTYWPRP | -0.256 |
| RRIRTRPPRLPRPRPRPYNMPRP | -0.568 |
| RRIRKRPPRLPRPRPRPKRYPRP | 0.032 |
| RRIRMRPPRLPRPRPRPRGWPRP | 1.34 |
| RRIRVRPPRLPRPRPRPSLAPRP | -0.0683 |
| RRIRWRPPRLPRPRPRPVLCPRP | 0.341 |
| RRIRSRPPRLPRPRPRPWSEPRP | -0.196 |
| RRIRARPPRLPRPRPRPFYPPRP | -0.104 |
| RRIRTRPPRLPRPRPRPIRGPRP | 0.074 |
| RRIRVRPPRLPRPRPRPVSAPRP | -0.141 |
| RRIRSRPPRLPRPRPRPRPNPRP | 0.345 |
| RRIRNRPPRLPRPRPRPKAQPRP | 0.0241 |
| RRIRTRPPRLPRPRPRPHPHPRP | 0.0583 |
| RRIRNRPPRLPRPRPRPLAGPRP | 0.148 |
| RRIRMRPPRLPRPRPRPSDLPRP | -0.035 |
| RRIRQRPPRLPRPRPRPSDNPRP | -0.394 |
| RRIRSRPPRLPRPRPRPQYKPRP | -0.464 |
